Patent US20170137490A1, “PEPTIDES, AND METHODS AND APPARATUS UTILISING SAME” (The University of Manchester, priority 2014, published 2017)
Values belong to the substance of their own block, whether it stands above or below them.

Legend:
N-C3 = target: T1, N-C3 (Homo sapiens, UniProt Q13018); test: SPR kinetics of patient sera autoantibodies over immobilized N-C3; details: patient autoantibodies in sera binding to immobilized N-C3
T1 construct: the N-terminus to and including CTLD3 (N-C3); no tag is printed; made in house; host or cells: HEK 293-EBNA1
T1 sequence (Q13018 21-643 limits assumed): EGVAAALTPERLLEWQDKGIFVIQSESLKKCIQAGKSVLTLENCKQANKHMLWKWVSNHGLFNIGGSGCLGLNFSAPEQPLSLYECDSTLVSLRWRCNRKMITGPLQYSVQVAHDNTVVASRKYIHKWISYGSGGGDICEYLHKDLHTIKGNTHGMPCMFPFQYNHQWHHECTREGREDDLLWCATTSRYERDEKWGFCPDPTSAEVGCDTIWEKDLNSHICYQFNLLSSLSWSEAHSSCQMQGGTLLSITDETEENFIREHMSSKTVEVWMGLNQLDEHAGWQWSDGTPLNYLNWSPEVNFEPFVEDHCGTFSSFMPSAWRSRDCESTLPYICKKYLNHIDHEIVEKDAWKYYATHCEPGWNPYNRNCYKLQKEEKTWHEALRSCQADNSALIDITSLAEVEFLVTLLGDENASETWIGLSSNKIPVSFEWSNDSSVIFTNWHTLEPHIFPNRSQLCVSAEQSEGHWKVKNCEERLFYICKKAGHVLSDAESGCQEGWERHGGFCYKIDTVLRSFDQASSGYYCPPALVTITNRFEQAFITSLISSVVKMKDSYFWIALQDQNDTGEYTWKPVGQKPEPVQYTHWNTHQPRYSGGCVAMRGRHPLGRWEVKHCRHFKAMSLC
Experimental: Quantitation of serum antibody concentrations was performed on the Proteon XPR-36 (Bio-Rad) SPR instrument where the initial binding rates of purified human anti-PLA2R binding to N-C3 were used as standard curve to determine the concentration of anti-PLA2R in the unknown serum samples.

[1] = system: human anti-PLA2R autoantibodies; test: Western blotting of PLA2R fragments with human anti-PLA2R autoantibodies; format: binding
[2] = Hydrodynamic radius from QELS; format: physicochemical; details: pH 7.4
[3] = Sedimentation velocity (analytical ultracentrifugation); format: physicochemical; details: for Frictional ratio (f/f0): from Mass derived from MALLS
Experimental: The experiments were performed using double sector cells and a rotor speed of 74,500 g for N-C8 and 116,500 g for N-C3, taking 150 scans at 1.5 minutes intervals at a wavelength of 280 nm and at a temperature of 20° C. The sedimenting boundaries were analyzed using the program Sedfit v8.7.

[4] = system: anti-PLA2R autoantibodies in patient sera; test: N-C3 inhibition ELISA (autoantibody binding to N-C8); set-up: species or system human; details: N-C3 9.0 μg ml-1; 43 PLA2R-positive sera
Experimental: The ELISA method was a variation on the standard assay previously described. Briefly, PLA2R (N-C8) at 125 ng ml-1 was coated onto ELISA plates overnight and plates blocked with Superblock (Thermo Scientific). 50 μl of 1:100 dilution of patient serum plus 50 μl of either buffer or NC-3 fragment to give a final concentration in the well of 9.0 μg ml-1, 0.9 μg ml-1, 0.09 μg ml-1 and 0.009 μg ml-1 were preincubated for 2 hours at room temperature before adding to the ELISA plate for a further 2 hours with shaking. Following extensive washing, anti-human IgG-HRP at 1:25,000 dilution in assay buffer was added to all wells for 2 hour incubation. Following washing, the plate was developed by adding substrate and the reaction terminated at 5 minutes by addition of 1 M H2SO4. Plates were read at 450 nm and inhibition curves constructed. The concentration of 9.0 μg ml-1 was used to compare the inhibition profile of 43 different sera previous reported as anti-PLA2R positive.

[5] = system: purified anti-PLA2R antibody; details: pH 6.2 (tight) vs pH 7.2 (extended)
[6] = Dual polarisation interferometry, pH dependent conformational change; format: physicochemical; details: pH range 5.0 to 7.2 screened; thickness of protein layer
Experimental: Dual polarisation interferometry was used to provide quantitative information on the thickness, the refractive index and density of the immobilized PLA2R layer with the capability to measure conformational change in real time. The DPI experiments were performed on a Farfield AnaLight instrument. […] N-C8 and N-C3 were regenerated between the different pHs with running buffer pH 7.2. Analysis of the raw data and determination of density, thickness and mass per unit area was achieved using the AnaLight® Bio200 analysis software (Farfield Scientific).

- Kd (N-C3): 0.085 nM
Substance: YLNHIDHEIVEKDAWK [compound 4, Linker between CTLD1 and CTLD2]

- Kd (N-C3): 0.043 nM
Substance: EDDLLWCATTSR [compound 3, Fibronectin type II domain peptide]

- difference in affinity of anti-PLA2R binding between conformations [5]: no difference in affinity
Substance: N-C8: recombinant full length extracellular PLA2R
- recognition by human anti-PLA2R autoantibodies [1]: recognized
- Hydrodynamic radius [2]: 6.25 ± 0.19 nm
- Sedimentation coefficient (S20, w) ([3]; pH 6.2): 9.23 ± 0.25
- sedimentation coefficient ([3]; pH 6.2): 9.2 s
- Frictional ratio (f/f0) ([3]; pH 6.2): 1.32
- sedimentation coefficient ([3]; pH 7.2): 8.1 s
- Sedimentation coefficient (S20, w) ([3]; pH 7.4): 8.08 ± 0.21
- Frictional ratio (f/f0) ([3]; pH 7.4): 1.51
- pH region where the transition in conformation occurred [6]: ~6.2 pH

The remaining lines, values behind:

Substance: N-C3: recombinant PLA2R fragment, the N-terminus to and including CTLD3
- recognition by human anti-PLA2R autoantibodies [1]: recognized
- Hydrodynamic radius [2]: 3.81 ± 0.23 nm
- Sedimentation coefficient (S20, w) ([3]; pH 6.2): 5.35 ± 0.10
- sedimentation coefficient ([3]; pH 6.2): 5.3 s
- Frictional ratio (f/f0) ([3]; pH 6.2): 1.39
- sedimentation coefficient ([3]; pH 7.2): 5.3 s
- Sedimentation coefficient (S20, w) ([3]; pH 7.4): 5.29 ± 0.09
- Frictional ratio (f/f0) ([3]; pH 7.4): 1.38
- patient sera in which binding of autoantibodies to N-C8 was effectively competed [4]: approximately 90%

Substance: YYATHCEPGWNPYNR [compound 5, Linker between CTLD1 and CTLD2]
- Kd (N-C3): 0.032 nM

Substance: N-C2: recombinant PLA2R fragment, the N-terminus to and including CTLD2
- recognition by human anti-PLA2R autoantibodies [1]: neither N-C2 nor C3 fragments were recognized
